Measurements: US5237051A (Vanderbilt University, priority 1990, dated 1993)

Target: T1, GC-C (Rattus norvegicus, UniProt P23897)
T1 construct: expressed in transfected cells; host or cells: COS-7
T1 sequence (P23897 23-1072): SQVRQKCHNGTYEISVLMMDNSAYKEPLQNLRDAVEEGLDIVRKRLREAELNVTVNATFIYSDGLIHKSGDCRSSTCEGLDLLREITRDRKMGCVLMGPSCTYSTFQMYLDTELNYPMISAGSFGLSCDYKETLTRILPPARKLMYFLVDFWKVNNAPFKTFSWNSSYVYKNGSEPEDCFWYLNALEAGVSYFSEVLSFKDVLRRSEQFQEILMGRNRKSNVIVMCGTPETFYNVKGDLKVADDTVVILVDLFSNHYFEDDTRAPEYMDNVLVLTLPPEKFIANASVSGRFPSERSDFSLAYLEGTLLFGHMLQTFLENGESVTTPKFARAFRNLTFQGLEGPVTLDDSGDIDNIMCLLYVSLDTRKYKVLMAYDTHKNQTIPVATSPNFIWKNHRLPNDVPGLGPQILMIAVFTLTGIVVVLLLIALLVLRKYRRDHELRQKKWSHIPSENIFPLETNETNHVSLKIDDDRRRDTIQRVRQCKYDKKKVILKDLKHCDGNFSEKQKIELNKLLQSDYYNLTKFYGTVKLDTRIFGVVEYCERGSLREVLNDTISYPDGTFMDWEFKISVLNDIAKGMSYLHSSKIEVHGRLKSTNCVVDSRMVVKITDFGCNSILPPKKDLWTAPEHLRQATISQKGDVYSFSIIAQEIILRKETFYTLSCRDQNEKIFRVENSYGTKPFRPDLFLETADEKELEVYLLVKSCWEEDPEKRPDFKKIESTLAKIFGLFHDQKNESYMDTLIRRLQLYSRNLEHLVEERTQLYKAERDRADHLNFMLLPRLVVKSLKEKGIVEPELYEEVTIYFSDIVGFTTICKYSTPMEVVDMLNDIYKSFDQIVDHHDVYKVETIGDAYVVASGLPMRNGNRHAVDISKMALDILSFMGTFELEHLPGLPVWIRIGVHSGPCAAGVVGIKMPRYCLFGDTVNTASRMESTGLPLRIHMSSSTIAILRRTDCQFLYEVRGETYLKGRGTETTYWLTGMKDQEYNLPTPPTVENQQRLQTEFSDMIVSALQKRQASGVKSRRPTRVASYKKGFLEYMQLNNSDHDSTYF
Type: cell-based

Row | Substance | cyclic GMP levels after stimulation of transfected cells (in words) | stimulation of GC-C (in words)
1 | atrial natriuretic peptide | did not increase cyclic GMP levels above background | failed to stimulate
2 | C-type natriuretic peptide | did not increase cyclic GMP levels above background | failed to stimulate
3 | brain natriuretic peptide | did not increase cyclic GMP levels above background | failed to stimulate
